# In PMC3348108 (The Journal of Experimental Medicine, 2012):
# Where no end group is shown, it is not given here.
# B1: DBD–Ligase IV (amino acids 1–240) (domain or fragment)
# chain: MAASQTSQTVASHVPFADLCSTLERIQKSKGRAEKIRHFREFLDSWRKFHDALHKNHKDVTDSFYPAMRLILPQLERERMAYGIKETMLAKLYIELLNLPRDGKDALKLLNYRTPTGTHGDAGDFAMIAYFVLKPRCLQKGSLTIQQVNDLLDSIASNNSAKRKDLIKKSLLQLITQSSALEQKWLIRMIIKDLKLGVSQQTIFSVFHNDAAELHNVTTDLEKVCRQLHDPSVGLSDISI
# Key:
# GST–Artemis C terminus = GST–Artemis C terminus (human, UniProt Q96SD1 386-692); experiment: pull-down
# [1] = target: B1; experiment: fluorescence polarisation
# Sequence of GST–Artemis C terminus (Q96SD1 386-692): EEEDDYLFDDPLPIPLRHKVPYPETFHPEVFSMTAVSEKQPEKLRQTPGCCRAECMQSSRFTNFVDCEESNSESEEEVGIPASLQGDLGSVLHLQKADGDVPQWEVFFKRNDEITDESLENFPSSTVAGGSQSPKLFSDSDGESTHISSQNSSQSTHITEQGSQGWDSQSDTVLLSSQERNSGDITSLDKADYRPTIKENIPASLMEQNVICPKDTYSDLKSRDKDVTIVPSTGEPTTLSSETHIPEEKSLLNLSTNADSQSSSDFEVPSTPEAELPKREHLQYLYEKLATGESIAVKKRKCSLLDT
Binder,binding result (GST–Artemis C terminus),Kd [1]
B1,binds,
"{FAM}-DVPQWEVFFKR [Ligase IV–interacting human Artemis peptide, WT]",,~2600 nM
